System: K4 kissing-loop RNA reporter
Assay: apparent KD of K4 kissing-loop reporter; higher = weaker reporter binding
Details: Eterna round: R107
Description: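 RNA-MaP round R107: designed RNA switches with theophylline, tryptophan, arginine or FMN aptamers are transcribed on-chip within common flanks. They are titrated with a labelled K4 kissing-loop RNA reporter in RNA-MaP buffer (100 mM Tris pH 7.5, 80 mM KCl, 4 mM MgCl2), without ligand or with the indicated ligand. Median apparent KD per design.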

[1] = input ligand: theophylline 20 uM
[2] = input ligand: tryptophan 2.4 mM
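Further: bound reporter read as fluorescence of individual clusters on recovered sequencing chips by microscopy, with normalized cluster intensities fitted with a binding model.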

| Sequence | apparent KD of K4 kissing-loop reporter (input ligand: FMN 200 uM) | apparent KD of K4 kissing-loop reporter (input ligand: arginine 13.2 mM) | apparent KD of K4 kissing-loop reporter (input ligand: none) | apparent KD of K4 kissing-loop reporter [1] | apparent KD of K4 kissing-loop reporter [2] |
| --- | --- | --- | --- | --- | --- |
| UAUCCUCGCUGAAGGAGCGAGCAUGAAGCAGUGAUGUUCCGAGCGAGUGAUGUUCGCAUAGCUCAGGUAGGUCGCAGUGGGAUUU [Same State Arginie B GF 17] | 795 nM | 749 nM | 1030 nM | 517 nM | 530 nM |
| GGCGGCCGCGCGUAAGCGCGGCCGGCCGAUACCAGCGCGACGGCGCGCCCUUGGCAGCGGCGCCGAGUGAUGUUCGGCCUGCCGG [#2 Same State - Theophylline A Attempt #17 (HarryS)] | 376 nM | 381 nM | 441 nM | 465 nM | 596 nM |
| AACUAUUAAUGAAUUACAUUUUAUUUUUCUCGAGGACCGGUACGGCCGCCACUCGUACUAUAGUGAUGUUAUAGAUAAGUCCUAA [JR_ExcTryptoA_Sub021] | 118 nM | 184 nM | 134 nM | 177 nM | 71.3 nM |
| CGAUUCAUGGCGGCCGCCACUCGCGAAGCUCCCGUUACGAUGUCCGCAACAGUGAUGUUGUUGCCGAGGACCGGGCCGAGAUCCA [theeternabot_exclusion_KL_Trp_B_31] | 283 nM | 173 nM | 228 nM | 211 nM | 218 nM |
| UGGACGAUAUACGAUAAGUAUAUCUGGGAUACCAGUGACGAAAGUCACCCUUGGCAGCUCAACUGCCAGUGAUGUUGGUAGUCCA [#17 K4 Theophylline A Same State] | 192 nM | 153 nM | 135 nM | 182 nM | 126 nM |
| UGUGUUUACCUGACUCAGUGAUGUUGAGAAGGAGCGUGAGAAAGCACAGGUAGGUCGCUCAACCUAAAUUCAGGUGAGCACUAAA | 241 nM | 274 nM | 238 nM | 302 nM | 204 nM |
| GGCAGUGAUGUUGCCAGUGGCAGAUGCGAAGGAGCGCAGUGAGAUGCAGGUAGGUCGCGCAUUGAAAUUGCUGUCACUAAAAUGC [#2] | 363 nM | 369 nM | 371 nM | 276 nM | 234 nM |
| CGAGUGAUGUUCGUUCGUAUAUUUGGGUGACAGGAUAUGCGGAAACGCAGAAGGGUCGCCUUCGGGUUACCCGAAUUGGCGUUUU [FMN A Model 2] | 444 nM | 402 nM | 546 nM | 461 nM | 455 nM |
| CCAUUCUGUUACGAUACCAGUCAAAGAUAUUUGAUCAAUACCCUCGCCGAGUGAUGUUCGGACCCUUGGCAGCGUCUGGGACAGG [fdxxvmullin] | 1320 nM | 437 nM | 558 nM | 427 nM | 550 nM |
| GGGUGGGUGCGAGGAUAUGGAGUGAUGUUCCAAAAGAAAAGAAGAGAAGAGAAAGAGAGAAAGAAACCAGAAGGCGCGUCCGUCC | 115 nM | 123 nM | 193 nM | 238 nM | 141 nM |
| AAGGCCACGAGAAGGAGCGUGUUGUGGAGUGAUGUUCCAUUGUAGACCUAAGGUCUGCGAGCACAGGUAGGUCGCUCGUGGUCAA [whbob_SS_Arginine_B_2t150] | 108 nM | 116 nM | 107 nM | 110 nM | 117 nM |
| GGGCCUAUUGAUGCUGGAGUAAUUCUGGAAGGAGCGCUCAAAGGAGCAGGUAGGUCGCCAGUAUACAAGGGCAGUGAUGUUGCCC [Entimalati] | 143 nM | 162 nM | 161 nM | 146 nM | 142 nM |
| UGAUACCAGACUGAUACCAGCCACAGAGUCAAAGACUCUGAAAAGGAAACCAGUGAUGUUGGCCCUUGGCAGCAGUCUGGUAUCU [TheoBX 15 #SwitchBubble #StaticStem] | 191 nM | 176 nM | 171 nM | 152 nM | 164 nM |
| AUGCGCGCGGCGGCCGCCACUCGCAUGAGAGUGAUGUUCUCGCCGUGCCCGUAAGGGCGCGGUGUGAGGACCGGGCCGGGCUGCG [#2 Same State - Tryptophan B Attempt #21 (HarryS)] | 70.8 nM | 66.3 nM | 400 nM | 319 nM | 131 nM |
| AAACAUCACUGGGAGUGAUGUUCUCAGUGACGAGGACCGGUACGGCCGCCACUCGCGAGAGAUAUAGGUAAGUAAUGACAUCAUU [Excl Tryptophan A V5] | 340 nM | 282 nM | 360 nM | 327 nM | 392 nM |
| UUUUUAAUCGCAGAUACCAGUCCAGAAUGAAUACUAUAGUGAUGUUAUAAUAAAGGGAAGGACCCUUGGCAGCUGUAAUAUAUUU [AstrosSsTheB#5] | 386 nM | 315 nM | 416 nM | 318 nM | 298 nM |

| Sequence | apparent KD of K4 kissing-loop reporter (input ligand: FMN 200 uM) | apparent KD of K4 kissing-loop reporter (input ligand: arginine 13.2 mM) | apparent KD of K4 kissing-loop reporter (input ligand: none) | apparent KD of K4 kissing-loop reporter [1] | apparent KD of K4 kissing-loop reporter [2] |
| --- | --- | --- | --- | --- | --- |
| UAACUGAAGUGAUGUUUCAGUUCGUCGGAUACCAGUGCCGAUCAUCACCCUUGGCAGCCGUAAUAUUACUUAACAAUGACAGGUU [theeternabot_exclusion_KL_Theo_A_7] | 122 nM | 107 nM | 118 nM | 119 nM | 108 nM |
| GGUUAAUAGGAGGAUACCAGUACGAAUAAAGUACAUUAAUAGUAGAGUGAUGUUCUAAAGUACCCUUGGCAGCUUAGAGUUAGUU [#19 K4 Theophylline B Exclusion] | 128 nM | 216 nM | 169 nM | 257 nM | 102 nM |
| AGGCGACGCAAAGGAUAUCACGGUUUUCUAGUGAUGUUAGUCAAGACCGACCGAGAAAUCAGUGUUUGAGAAGGUUGAACGUCGC [theeternabot_sameState_KL_FMN_B_46] | 496 nM | 682 nM | 1870 nM | 756 nM | 970 nM |
| ACCCUACUCGGGCGGCUAUACAGUUAAGCUAAGGAUAUGUAUUCGUACAGAAGGUAGAAGAAGCCGAGUGAUGUUCGACACGCCC [theeternabot_sameState_KL_FMN_A_24] | 557 nM | 386 nM | 544 nM | 293 nM | 413 nM |
| UGUCAUGGAAACAUGAACGUUGAUGUUCGACGAGGACCGGUACGGCCGCCACUCGAGUAAUAGUCAGUGAUGUUGACUAGUCUAA [KL-SSTryp-A form1] | 76.7 nM | 107 nM | 95 nM | 112 nM | 75.7 nM |
| GAAAGAAAGAAUGAUACCAGACACCCGAGUGAUGUUCGGAGCAGAGUGAUGUUCUUAUAAGUCCCUUGGCAGCAUAAAAGAAAAG [whbob_SS_Theo_B_sa82] | 192 nM | 171 nM | 196 nM | 186 nM | 153 nM |
| UUGGAUUGAUGAGAGUUGAUUUGGUAGGAAGGAGCGGCCGAAAGGCCAGGUAGGUCGCCUAUUGACAGUGAUGUUGUUAUAUGGU [#16] | 215 nM | 228 nM | 237 nM | 489 nM | 226 nM |
| UUGGGCAACCGAGAUACCAGUCAAAUCGCUCUGGAGUGAUGUUCCGGAACAUGCGGAGAAGACCCUUGGCAGCUCAAGACGGACA [Exclusion Theophylline B GF 1] | 111 nM | 107 nM | 107 nM | 113 nM | 91.2 nM |
| CUUGUACAAGUGAUGUUUGUUAUAUCCGAAGGAGCGUCGUACUAGACAGGUAGGUCGCGGAUGAAGAUAGUUUUUUUAAUAUCAU [JR_Nu_SSArginiA_Sub028] | 687 nM | 474 nM | 761 nM | 648 nM | 533 nM |
| CUUACCCAUCGGAUGGAUCAACUGCACACGAAGGAUAUACACACGGGUAGAAGGUCGGGAUUCCAGUGAUGUUGGAUGGUACGAC [theeternabot_exclusion_KL_FMN_A_29] | 87.2 nM | 96.5 nM | 91.3 nM | 98.7 nM | 74.2 nM |
| AAUGUACAAGUGAUGUUUGUACUUUCCGAAGGAGCGUCUAAUAAGACAGGUAGGUCGCGGAUUCUCUAAAUUAUCAGGUCAUUAA [JR_ExcArginiA_Sub018] | 91.8 nM | 85.4 nM | 94.3 nM | 85.6 nM | 87.4 nM |
| UAUCUAUGCUCGGCCGCCACUAGGACCGGGAGGUAACUAGUGAUGUUAGUAUCUUCGGCCGCCACUAGGACCGGGAGUGUAGAUA [KL-SSTryp-B17 #DoubleAptamer] | 115 nM | 95.2 nM | 92.7 nM | 95.5 nM | 74.6 nM |
| GGAUCCACCAGUGAUGUUGGAGAAAACUCUAAGGAUAUGACGAAAGUCAGAAGGUGGUAGACUGGGCAAAGUCCGGUCGGAUCCA [FmnA10 U30+G66] | 490 nM | 120 nM | 378 nM | 873 nM | 660 nM |
| GGUCGAGUGAUGUUCGAUGUUAUGCAUUCAGAGGAUAUAGGAUUGGCUAGAAGGCUGAAUCGAUCUUCGAGUGAUGUUCGAGGAU [Same State FMN A GF 8] | 116 nM | 112 nM | 117 nM | 101 nM | 128 nM |
| CGAGAAUGUCGACAGUCAUCGGUCCAUGCACGAGGACCGGUACGGCCGCCACUCGAGCGUGGCAGUGAUGUUGCCAGCGCACUAA [KL-XTryp-A14] | 99.6 nM | 85.1 nM | 86.3 nM | 86 nM | 100 nM |
| GUAUCGCUAGGAGGAUAUUUCGUUUUUCAUAGCAAUGGCUAUGCGGAGUGAUGUUCCGAUUUACCGAAAGAAGGCCUAGUGAUAC [FMN B 25] | 95.2 nM | 87.8 nM | 99.2 nM | 103 nM | 98.8 nM |

Reference: the supplement of paper PMC9170038
